Data reported in PMC3348883.

Target: Raf-1 (UniProt P04049)
Experiment: FLAG IP, GFP-Raf-1 blot
Details: reference: FLAG-MST2 wild type; sites Y81

Substance: MST2 (from UniProt Q13188) FLAG-MST2 Y81F
- binding against the reference: stronger
